Experimental data taken from the nanobody polyreactivity screen of Harvey et al. (2022).

Assay: yeast display, Sf9 membrane polyspecificity reagent, FACS + sequencing; frameworks hold sequencing errors
How it was run: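 Sorting gates, low and high (top ~1%), were placed on anti-HA fluorescence to track expression and on streptavidin fluorescence to track reagent binding. A clone's polyreactivity label is taken from the gate it came out of. The reagent was 10% biotinylated, detergent-solubilized Sf9 membrane, applied for 1 hour at 4 °C to galactose-induced yeast display cells.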

Sequence | polyreactivity (PSR sort gate)
QVQLVESGGGLVQAGGSLRLSCAASGRTFEIYAIGWYSKAPGKERELVAAISSGGSTYYADSVKGRFTISRDNAKNTVYLQMNSLKPEDTAVYYCAVRWYDQVSRRGIGYYWGQGTQVTVSS | low polyreactivity
QVQLVESGGGLVQAGGRLRLSCAASGITFDLYAMGWYSQAPGKERELVAAISISSTSTYYADSVKGRFTISRDYEKNTVYLQMNSLKPEDTAVYYCNAVPSSKTFWFDYWGQGTQVTVSS | low polyreactivity
QVQHVESGGGLVQAGGSLRLSCAASGSTFYRNTKGWYRQAPGKETELVAAISRSGGSTYYADSVKGRFTISRDNAKNTVYVQMNSLKPEDTAVYYCNADYTDYQTYSATTYEYWGQGTQVTVSS | low polyreactivity
QVPLVESGGGLVQAGGSLRLSCAASGSTFVRYAMGWYRQAPGKERELVAGISRVGNTYYADSVKGRFTISRDNAKNTVYLQMNSLKPEDTAVYYCARSQAVYDGWFAKFGYWGQGTQVTVSS | high polyreactivity
QVQLVESGGGLVQAGGSLRLSCAASGRTFTFNSMGGYRQAPGKERELFSRIDWRGITYADSVKGRFTISRDNAKYTVYLQMNSLKPEVTAVYYCSATFIQVVVNVQLYDYDYWGQGTQVTVSS | low polyreactivity
QVQLVESVGGLVQAGGSLRLSCAASGYIFYGYAMGWYRQAPGKEREFVAAITVRGGSTYYADSVKGRFTISRDNAKNTVYLQMNSEKPEDTAVYYCAAAPQFTFGVGYWGQGTQVTVSS | low polyreactivity
QVQLVESGGGLVQAGGSLRLSCAASGRTIRFNAMGWYRQAQGKESELVAAISFSGGNTYYADSVKGRFTISRDNAKNTVYIQMNSLKPDDTAVYYCAARFTYRYYNYLKYDYWGKGTQVTVSS | high polyreactivity
QVQLVESGGGLVQAGGSLRLSCAASGRTFDPYAMGWYIQAPGKERELVAAITSGDDTYYADSVKGRFTISRDNAKNTVYLQMNSLKPEDTAVYYCAADSFTPDYYSHDYWGQGTQVTVSS | low polyreactivity
QVQLVEAGGGLVQAGGSLRLSCAASGITFGDNAMGWYIQAPGKDRELVAAITLSDVDTYADSVKGRFTISRDNSKNTVYLQMISLKPEDTAVYDCAADYDFFSLYLYDYWGQGTQVTVSS | low polyreactivity
QVQLVESGGGLVQAGGSLRLSCAASGFTFRHNTMGWYRQAPGKERELVAAISIGGRTYYADSVKGRFTISRDNAKNTVYLQMNSLKPEDTAVYYCAKLSRGQSPGYDYWGQGTQVTVSS | high polyreactivity
QVQLVESGGGLVQAGGSLRLSCAASGRTFVDYAMGWYRQAPGKERELVAAISSSGASTYYADSVKGRFTISRDNAKNTVYLQMNSLKPEDTAVYYCAARRHRTYGYWGQGTQVTVSS | high polyreactivity
QVKLVESGVGLVKAGVSLRLSSAASGFTFYSYAMGCYRQAPGKESELVAAISWSGSRTYYADSVKGRFTISRDNAKNTVYLQMNSLKPEDTGVYYCAAYSYVRYSSWSDYWGLGTQVTVSS | high polyreactivity
QVQLVESGGGLVQSGGSLRLSCAASGFSFRYYAMGWYRQAPGKERELVAAITQSGGTTYYADSVKGRFTISRDNAKNTVYLQMNSLKPEDTAVYYCNGYGYGFTGKGDYWGQGTQVTVSS | high polyreactivity
QVQLVESGGGLVQAGGSLRLSCAASGNIFYNGMGWYRQAPGKERELVAAIRGSGGRTYADSVKGRFTISRDNAKNTVYLQMNSLKPEDTAVYYCATRRWYAYGVYYWGQGTQVTVSS | high polyreactivity
QVQLVESGGGLVQAGGSLRLTCAASGRTFRSYTMGWYRQAPGKERELVAAISGSGGRTYYADYVKGRFTISRDNAKNNVYLQMNILKPEDTADYYCNKGFTDYHYYYWGQGTQVTVSS | high polyreactivity
QFQLVESGGGLGQAGGSNRLSCAASGRIFNIYAMGCYRQSPGKERELVADITSGGTKYADSVKGRFTISRDNAKNTVYLQMNSLKPEDTAVDYCAAEYLYYGGVDYWGQGTQVTVSS | high polyreactivity
QVQLVESGGGLVQAGGSLRLTCAASGRILTCYAMGWYRQEPGKERELVASINWRGGSTYYADSVKGRFTISRDNAKNTVYLQMNSLKPEDTAGYYCARYKYTRQTRVEYGYWGQGTQVTVSS | high polyreactivity
QVQLVESGGRLVQAGGSLRLSCAASGRIFRVYAMGWYRQAPGKERELVAAISSRGGRTYYADSVKGRFTISRDNAKNTVYLQMNSLKPEDTAVYFCAADGRSSSRTTSRYDYWGQGTQVTVSS | high polyreactivity
QVQLVESGGGLVQAGGSLRLSCAASGRTFRWYAMGWYRQAPGKETELVAAINPGGSTNYADSVKGRFTISRDNAKNTVYLQMNSLKPEDTAVYYCNAAGYDALTHNYYWGQCTQVTVSS | low polyreactivity
QVQLVESGGGLVQAGGTLRLSCSASGRTFPGYAMGWYRQAPGKERELVAVISLSGGRTNYADSVKGRFTISRDNAKNTVFLLMNSLKPEDTAVYYCAGRYHGHSNDYWGQGTQVTVSS | low polyreactivity
QVQLVESGGGLVQAGGSLRLSCAASGIIFGEYAMGWYRQAPGKERELVAAISGSGSRTYYADSVKGRFTISRDNAKNTVYLQMNSLKPEDTAVYYCAVKGGGTRYGYWGQGTQVTVSS | high polyreactivity
QVQLVESGGGLVQAGGSLRLSCAASGRIFYQYAMGWYRQAPGKERELVAAIRYRDDGTYYADSVKGRFTISRDNAKNTVYLQMNSLKPEDTAVYYCAAKQWGRYGFWGQGTQVTVSS | high polyreactivity

Sequence | polyreactivity (PSR sort gate)
QVQLVESGGGLVQAGGSLRLSWAAAGFIFYYNAMGRYRQAPGKERELVAAIDESGGSTYYADSVKGRFTISRDNATNTVYLQLNSLKPEDSAVYYCDTDDTWSISYGWYWFTYEYWGQGTQVTVSS | low polyreactivity
QVQLVESGGGLVQAGGSLRLSCAASGSTFDFYAMGWYRQAPGKERELVARISSGGGRTYYADSVKGRFTISRDNAKNTVYLQLNSLKPEDTAVYYCATDYPWIFGHFLMDYWGQGTQVTVSS | low polyreactivity
QVQLVESGGGLVQAGGSLRLSCAASGFTFLVNAMGWYRLAPGKERELVAAISRIGASTYYADSVKVRFTISRDNAKNTVYIQMNSLKPQDTAVNYCAARPWANTYPRRRYDYWGQGTQVTVSS | high polyreactivity
QVQLVESGGGLVQAGGRLRLSSDASGLTFPTNAMGRYRQAHGKETEFVAAITSRGGTTYYADSVKGRFTISRDNAKNTVYLQMNSLKPEDTAVYYCAALSVTIYQSYRYGYWGQGTQVTVSS | low polyreactivity
QVQLVESGGGLVQAGGSLRLSCAASGSTFTRYGMGWYRQAPGKEREMVAAITTSGSSTYYADSVKGRFTISRDNAKNTVYLQMNSLKPEDTAVYYCAADWSSWGFDYWGQGTQVNVSS | low polyreactivity
QVQLVESGGGLVQAGGSLRLSCAASGSILGVYTMGWDRQAPGKERELVAAITSSSSSTYADSVKGRFTISRDNAKNTVYLQMNSVIPEDTAVYYCATRGWSKQLYGGYTQYYYWGQGTQVTVSS | high polyreactivity
QVQLVESGGGLVQAGGSLRLSCAASGRTFTFYAMGWYRQAPGKERELVAAISTRGGRTYYADSVKGRFTISRDNAKNTVYFQMNSLKPDDTAVYYCASRARRRYYYWGQGTQVTVSS | high polyreactivity
QVQLEESGGGLVQAGGSLRLSCAASGFIFGYYGMGWYRQAPGKERELVAAITDGGSTTYADSVKGRFTISRDNAKNTVYLQMNSLKPEDTAVYYCNAEAGGFDYYGKTYRYGDYWGQGTQVTVSS | low polyreactivity
QFQLVESGRGLVQAGGSIRLSCAASGSIFRWYAMGWSRQAPGKERELVAAISYGGGSTYYADSVKGRFTISRDNAKNTVYLQMNRLKPEDTAVYYCNRGYPSTLYDYWGQGTQVTVSS | high polyreactivity
QVQLVESGGGLVQAGGSLRLSCAASGITFPYNAMGWYRQAPGKERELVASINSGDSTNYADSVKGRFTISRDNAKNTVYLQMNSLKPEDTAVYYCAAADYWHYKYDYWGQGTQVTVSS | low polyreactivity
QVQLVESGGGLVQAGGSLRLSCAATGFTFVYYAMGWYRPAPGKERELVAAISSSGTRTYYADSVKGRFTISRDNAKNTVYLQMNSLKPEDTAVYFCAARNTYRTKVDYWGQGTQVTVSS | high polyreactivity
QVQLVESGGGLVQAGGSLRLSCAASGRSFYNYAMGWYRQAPGKERELVAAISGSGGSTYYADSVKGRFTISRDNAKNSVYLQMNSLKPEDTAVYYCSTSGPQYYSRNFDSWGQGTQVTVSS | low polyreactivity
QVQLVESGGGLVQAGGTLRLSCAASGSTFKSNAMGWYRQEPGKERELVAAINRSGAGTYYADSVKGRFTISRDNAKNTVYLQMNSLKPEDTAVYYCAAQSYSRRYDYWGQGTQVTVSS | high polyreactivity
QVQLVESGGGLVQAGGSLRLSCAASGSTFVTNDMGWYRQAPAKERELVAAISSGTSTNYADSVKGRFTISRDNAKNTVYLQMNSLKPEDTAVYYCAADSLKRYDYWGHGTQVTVSS | low polyreactivity
QVQLVESGGGLVQAGGSLRLSCAASGRIFVTYGMGWYRQAPGKERELVAAINWRGGSTYYADSVKGRFTISRDNAKNTVYLQMNSLKPEDTAVYYCNARLYRNRLGYWGQGTQVTVSS | high polyreactivity
HVQLVESGGGLVQAGRSLRLSCAASGGIFYRYAMGWYRQAPGKEWELVATISRRGGRTYYADSVKGRFTISRDYAKNTVYLQMYSLKPEDTAVDYCAADEWQSGHGLEDDYWGQGTQVTVSS | high polyreactivity
QVQLVESGGGLVQAGGSLRLSCAASGGTFIYYAMGWYSQAPGKERELVAAISSGGSTYYADSVKGRFTISRDNAKNTVYLQMNSLKPEDTAVYYCAKRRAVQIVDLEYWRQGTQVTVSS | low polyreactivity
QVQLVESGGGLVQAGGSLRLSCAASGSIFVDNAMGWYRQATGKERELVAAISASGVTTYYADSVKGRFTISRDNAKNTVYLQMNSLKPEDTAVYYCNADYGSDDDVVRYDYWGQGTQVTVSS | low polyreactivity
QVQLVESGGGLVQAGGSLRLSCAASGFIFSSYAMGWYRQAPGKERELVAAISRSGGRTNYADSVKGRFTISRDNAKNTVYLQMNSLKPDDTAVYYCNARGRGKYPPYGYDYWGQGTQVTVSS | high polyreactivity
QVQLVESGGGLLQAGGSLRLSCAASGSTFVTNDMGWYRPAPGKERELVAAISSGSSTNYADSVKGRFTISRDNAKNSVYVHMNSLKPEDTAVYYCAADSLKRYDYWGQGTQVTVSS | low polyreactivity
QVQLVESGGGLVQAGGSLRLSCAASGSTFYWYAMGWYRQATGKERELVAVITVRGGSTYYADSVKGRFTISRDNAKYTVYLQMNSLKPEDTAVYYCAAEQTSSLYKYWYDYWGQGTQVTVSS | low polyreactivity
